Experimental data taken from PMC5018465 (Biochimica et biophysica acta, 2016).

Molecular target: the molecule itself
Assay: SEC-MALS

B1: αAΔ70–76 deletion mutant of human αA-crystallin (natural protein, UniProt P02489 1-173, looked up)
chain: MDVTIQHPWFKRTLGPFYPSRLFDQFFGEGLFEYDLLPFLSSTISPYYRQSLFRTVLDSGISEVRSDRDVKHFSPEDLTVKVQDDFVEIHGKHNERQDDHGYISREFHRRYRLPSNVDQSALSCSLSADGMLTFCGPKIQTGLDATHAERAIPVSREEKPTSAPSS
binding result: binds

B2: αAΔ70–88 deletion mutant of human αA-crystallin (natural protein, UniProt P02489 1-173, looked up)
chain: MDVTIQHPWFKRTLGPFYPSRLFDQFFGEGLFEYDLLPFLSSTISPYYRQSLFRTVLDSGISEVRSDRDVQDDFVEIHGKHNERQDDHGYISREFHRRYRLPSNVDQSALSCSLSADGMLTFCGPKIQTGLDATHAERAIPVSREEKPTSAPSS
binding result: binds
